Measurements: article PMC4912689, “The Extracellular Surface of the GLP-1 Receptor Is a Molecular Trigger for Biased Agonism” (Cell, 2016)

B1: unnamed (parent)
chain 1: HSQGTFTSDYSKYLDSRRAQDFVQWLMNTKRNRNNIA
chain 2: RPQGATVSLWETVQKWREYRRQCQRSLTEDPPPATDLFCNRTFDEYACWPDGEPGSFVNVSCPWYLPWASSVPQGHVYRFCTAEGLWLQKDNSSLPWRDLSECEESKRGERSSPEEQLLFLYIIYTVGYALSFSALVIASAILLGFRHLHCTRNYIHLNLFASFILRALSVFIKDAALKWMYSTAAQQHQWDGLLSYQDSLSCRLVFLLMQYCVAANYYWLLVEGVYLYTLLAFSVLSEQWIFRLYVSIGWGVPLLFVVPWGIVKYLYEDEGCWTRNSNMNYWLIIRLPILFAIGVNFLIFVRVICIVVSKLKANLMCKTDIKCRLAKSTLTLIPLLGTHEVIFAFVMDEHARGTLRFIKLFTELSFTSFQGLMVAILYCFVNNEVQLEFRKSWERWRLEHLHIQRDSSMKPLKCPTSSLSSGATAGSSMYTATCQASCS

Variants of: B1
Test: radioligand inhibition binding (competition with 125I-exendin-4(9-39))
Settings: read off a plot

Variant	log10 ratio
chain 2 M181A	-1.5 ΔpKi
chain 2 Q190A	0.1 ΔpKi
chain 2 W191A	-0.15 ΔpKi
chain 2 E269A	-1.3 ΔpKi
chain 2 S196A	0.1 ΔpKi
chain 2 W274A	-0.1 ΔpKi
chain 2 Y266A	0.1 ΔpKi
chain 2 D199A	-0.25 ΔpKi
chain 2 S183A	0.1 ΔpKi
chain 2 S278A	-0.35 ΔpKi
chain 2 Q188A	-0.05 ΔpKi
chain 2 W180A	-0.15 ΔpKi
chain 2 L194A	-0.15 ΔpKi
chain 2 L178A	-0.9 ΔpKi
chain 2 L195A	-0.5 ΔpKi
chain 2 N281A	-0.5 ΔpKi
chain 2 Y182A	-0.3 ΔpKi
chain 2 T184A	-0.05 ΔpKi
chain 2 H189A	0.2 ΔpKi

Variant	log10 ratio
chain 2 R276A	-1.9 ΔpKi
chain 2 L361A	-0.85 ΔpKi
chain 2 E271A	-0.15 ΔpKi
chain 2 N279A	-1.4 ΔpKi
chain 2 R357A	-0.55 ΔpKi
chain 2 G272A	0.15 ΔpKi
chain 2 I359A	0.05 ΔpKi
chain 2 T363A	-0.2 ΔpKi
chain 2 D349A	-0.3 ΔpKi
chain 2 N277A	-1.4 ΔpKi
chain 2 G262A	0.1 ΔpKi
chain 2 L356A	-0.8 ΔpKi
chain 2 D192A	-0.2 ΔpKi
chain 2 Q198A	0.15 ΔpKi
chain 2 L284A	-0.85 ΔpKi
chain 2 T275A	0.4 ΔpKi
chain 2 K265A	-1.4 ΔpKi
chain 2 S200A	-0.35 ΔpKi
chain 2 D270A	-1 ΔpKi

Variant	log10 ratio
chain 2 I263A	-0.15 ΔpKi
chain 2 R353A	-0.35 ΔpKi
chain 2 F362A	-0.15 ΔpKi
chain 2 G354A	-0.45 ΔpKi
chain 2 V264A	-0.25 ΔpKi
chain 2 H351A	-0.4 ΔpKi
chain 2 T355A	-0.55 ΔpKi
chain 2 Y282A	-1.9 ΔpKi
chain 2 M280A	-0.8 ΔpKi
chain 2 E350A	-0.85 ΔpKi
chain 2 L267A	-0.4 ΔpKi
chain 2 E364A	-0.5 ΔpKi
chain 2 F358A	-1.1 ΔpKi
chain 2 Y268A	-0.45 ΔpKi
chain 2 K179A	-0.85 ΔpKi
chain 2 Y197A	-0.3 ΔpKi
chain 2 Q187A	-0.65 ΔpKi
chain 2 C273A	0.4 ΔpKi
chain 2 K360A	-0.9 ΔpKi
